From patent US10466252B2, “Methods for selecting protease resistant polypeptides” (Glaxo Group Limited, priority 2008, dated 2019)

Assays:
[1] = test system: natural protease acting in E. coli cells; test: Integrity after expression in E. coli (non reducing SDS-PAGE, mass spectrometry, Edman sequencing); settings: MS and Edman sequencing
Procedure: Expression was performed by inoculation of a 50 milliliter culture of 2×TY media supplemented with OVERNIGHT EXPRESS™ autoinduction solutions (1 milliliter of Solution 1 (Cat. No. 71298), 2.5 milliliters of Solution 2 (Cat. No. 71299), 50 microliters of Solution 3 (Cat. No 71304), Novagen) and 100 microgram per milliliter of carbenicillin. Culture was carried overnight at 37° C., and then the culture supernatant was clarified by centrifugation at 3700×g for 45 minutes. The expressed protein was then purified from the clarified supernatant using PROTEIN L STREAMLINE™ (GE Healthcare, Cat. No. 28-4058-03, protein L coupled), and eluted from the Protein L using 0.1M glycine pH 2.0, then neutralized using 0.2 volumes of 1M Tris pH 8.0.
After the plasmid DNA pDOM35 comprising sequence of DMS7161 was transformed into BL21(DE3), glycerol stock was prepared from grown colonies, by scraping colonies into minimal media with glucose and addition of glycerol, final conentration of approximately 15%. Expression of DMS7161 was started by inoculation of the glycerol into 50 milliliters of minimal media (DMS7161 A) supplemented in Yeast Extract for final concentration 10 g/liter (DMS7161 B) so as to obtain the starting culture density of OD600=0.024. The culture was grown to OD600 of approximately 1.4 at 30° C., then induced by the addition of 0.1 mM isopropyl-beta-d-thiogalactoside. […]

human GLP-1 receptor = target: T1, human GLP-1 receptor (Homo sapiens, UniProt P43220); test: GLP-1 receptor assay, CHO 6CRE GLP1R cells, luciferase reporter (384-well, STEADY GLO); type: cell-based
T1 construct: expressed in transfected cells; host or cells: CHO K1 (CHO 6CRE GLP1R)
T1 sequence (P43220 24-463): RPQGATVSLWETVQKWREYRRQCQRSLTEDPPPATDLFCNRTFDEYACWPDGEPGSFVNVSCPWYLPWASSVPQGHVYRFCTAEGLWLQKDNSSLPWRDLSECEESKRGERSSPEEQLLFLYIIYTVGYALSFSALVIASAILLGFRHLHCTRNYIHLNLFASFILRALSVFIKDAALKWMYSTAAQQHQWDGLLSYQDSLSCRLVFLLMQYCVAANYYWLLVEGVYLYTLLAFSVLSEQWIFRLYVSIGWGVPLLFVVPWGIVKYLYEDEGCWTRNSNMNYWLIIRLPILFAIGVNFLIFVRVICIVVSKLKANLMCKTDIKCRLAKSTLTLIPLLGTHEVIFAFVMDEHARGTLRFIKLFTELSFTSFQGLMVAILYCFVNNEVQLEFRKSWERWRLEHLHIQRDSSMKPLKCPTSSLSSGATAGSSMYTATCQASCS
Procedure: Background: GLP-1R is a 7TM G-protein coupled receptor which is expressed on CHO cells. […] CHO cells are stably transfected with the 6CRE/luc reporter gene. […] This then catalyses a reaction with luciferin to produce light which can be measured on a luminometer.
Suspension culture was maintained for forty-eight hours. Cells were then diluted into 15 mM HEPES, 2 mM L glutamine (2.5×10^5 cells/ml) and dispensed into 384-well plates containing 10 ul/well of the compound to be assayed. After the addition of assay controls, plates were returned to the incubator for 3h at 37° C. and 5% CO2. […] Plates were placed in the reader (Packard TopCount) and pre-incubated for 5 minutes prior to reading […] and plotting of results. Compound was assayed at a range of concentrations response curve to be fitted from which pC50s were calculated.

[2] = target: T2, GLP-1 receptor (CHO 6CRE GLP1R cells) (Homo sapiens, UniProt P43220); test: GLP-1 assay, CHO 6CRE GLP1R cells, luciferase reporter (96-well, BRIGHT-GLO); type: cell-based
T2 construct: expressed in transfected cells; host or cells: CHO 6CRE GLP1R cells (CHO K1)
T2 sequence (P43220 24-463): as above

Molecule	integrity / degradation on expression in E. coli [1]	% max response (human GLP-1 receptor; CHO 6CRE GLP1R cells, 3h at 37° C.) [%]	activity in GLP-1 receptor assay compared with GLP-1 peptide (human GLP-1 receptor; FIG. 6)	activity compared with DMS7148 [2]
DMS7148: *GLP-1 variant (W25-D mutation) fused to ALBUDAB DOM7h-14 by PSS linker; SEQ ID NO: 16 (protein, Source Amino acid sequence of DMS7148 domain antibody made using molecular biology techniques.) HGEGTFTSDVSSYLEGQAAKEFIADLVEGRGPSSDIQMTQSPSSLSASVGDRVTITCRASQWIGSQLSWYQQKPGKAPKLLIMWRSSLQSGVPSRFSGSGSGTDFTLTISSLQPEDFATYYCAQGAALPRTFGQGTKVEIKR	well expressed in E. coli with the majority of material migrating at the expected size	107	active, however less active than GLP-1 peptide	
DMS7161: *GLP-1 variant of DMS7148 fused to DOM7h-14-10 by PSS linker; A = minimal media, B = with Yeast Extract (protein, Source Amino acid sequence of DMS7161 domain antibody made using molecular biology techniques., *GLP-1 variant of DMS7148 fused to DOM7h-14-10 by PSS linker; A = minimal media, B = with Yeast Extract) HGEGTFTSDVSSYLEGQAAKEFIADLVEGRGPSSDIQMTQSPSSLSASVGDRVTITCRASQWIGSQLSWYQQKPGKAPKLLIMWRSSLQSGVPSRFSGSGSGTDFTLTISSLQPEDFATYYCAQGLRHPKTFGQGTKVEIKR	well expressed in E. coli with the majority of material migrating at the expected size			as active as DMS7148
